Source: patent publication US20210317231A1 (BYONDIS B V, published 2021)
Where a chain is given by its changes, count along the chain named.

T1: cynomolgus monkey 5T4 antigen (cynomolgus monkey, UniProt Q4R8Y9 35-420)
T1 construct: whole, on cells; also called cyno 5T4
T1 sequence (looked up): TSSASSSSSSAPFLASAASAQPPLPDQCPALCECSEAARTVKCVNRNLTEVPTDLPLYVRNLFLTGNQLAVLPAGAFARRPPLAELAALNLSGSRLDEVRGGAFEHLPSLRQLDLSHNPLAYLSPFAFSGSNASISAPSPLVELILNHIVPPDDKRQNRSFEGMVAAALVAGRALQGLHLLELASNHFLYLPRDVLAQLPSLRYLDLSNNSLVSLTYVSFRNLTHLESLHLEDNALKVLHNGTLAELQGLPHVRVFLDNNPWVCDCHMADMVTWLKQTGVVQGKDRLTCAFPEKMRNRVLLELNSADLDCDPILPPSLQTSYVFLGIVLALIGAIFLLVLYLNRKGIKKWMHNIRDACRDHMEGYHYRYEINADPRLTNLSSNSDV

T2: human 5T4 oncofoetal antigen (human, UniProt Q13641 32-420)
T2 construct: whole, on cells; also called hu 5T4; human 5T4 antigen
T2 sequence (looked up): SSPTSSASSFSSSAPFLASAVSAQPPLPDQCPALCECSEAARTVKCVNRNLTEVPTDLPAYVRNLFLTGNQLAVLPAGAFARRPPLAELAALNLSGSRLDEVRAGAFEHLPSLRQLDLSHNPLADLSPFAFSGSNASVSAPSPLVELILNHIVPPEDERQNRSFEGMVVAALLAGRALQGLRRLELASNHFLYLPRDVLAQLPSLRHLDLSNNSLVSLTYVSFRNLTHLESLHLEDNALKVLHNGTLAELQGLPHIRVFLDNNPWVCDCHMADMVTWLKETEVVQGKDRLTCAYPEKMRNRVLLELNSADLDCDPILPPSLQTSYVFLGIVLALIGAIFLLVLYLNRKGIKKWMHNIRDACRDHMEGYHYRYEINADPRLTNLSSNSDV

B1: humanized anti-5T4 antibody 789a with HC-41C mutation (antibody, V domains shown)
VH: EVKVEESGGGLVQPGGSLRLSCAASGFSLSSYWMSWVRQACGKGLEWVSIIAGRGSTYYASWAKGRFTISKDNSEGMVYLQMNSLRAEDTAVYYCARVSSIYYTFNLWGQGTTVTVSS
VL: EIVLTQSPSSLSASVGDRVTITCQSSQSVYSNNELSWYQQKPGKAPKLLIYYASTLASGVPSRFSGSGSGTDFTLTISSLQPEDFATYYCQGSYYSGSGWYYAFGQGTKLEIKR
B2: humanized anti-5T4 antibody 789b with HC-41C mutation (antibody, V domains shown)
VH: EVQLLESGGSLVLPGGSLRLSCAASGFSLSSYWMSWVRQACGKGLEWVSIIAGRGSTYYASWAKGRFTISRDNSKNTLYMQMNSLRAEDTALYFCARVSSIYYTFNLWGQGTLVTVSS
VL: B1 VL
B3: humanized anti-5T4 antibody 789d with HC-41C mutation (antibody, V domains shown)
VH: QSVEESGGGLVQPGGSLRLSCAASGFSLSSYWMSWVRQACGKGLEWIGIIAGRGSTYYASWAKGRFTISRDNSKNTLYLQMNSLRAEDTAVYYCARVSSIYYTFNLWGQGTLVTVSS
VL: B1 VL with E1A, I2Q, Q106G, L110V
B4: humanized anti-5T4 antibody 789c with HC-41C mutation (antibody, V domains shown)
VH: B3 VH
VL: DIVMTQSPDSLAVSLGERATINCQSSQSVYSNNELSWYQQKPGQPPKLLIYYASTLASGVPDRFSGSGSGTDFTLTISSLQAEDVAVYYCQGSYYSGSGWYYAFGGGTKLEIKR
B5: humanized anti-5T4 antibody 833a with HC-41C mutation (antibody, human IgG1, kappa, V domains shown)
VH: EVQLVESGGGLIQPGGSLRLSCAASGIDLSHYVVGWVRQACGKGLEWVSIIYGSGRTYYANWAKGRFTISKDNSKNTLYVRMNSLRAEDTAVYYCARDASVSVYYWGYFDLWGQGTLVTVSS
VL: AYDMTQSPSSVSASVGDRVTITCQASQSIGSELAWYQQKPGKAPKLLIYRASTLESGVPSRFSGSGSGTDFTLTISSLQPEDFATYYCQQGYTYSEIDNAFGGGTKVEIKR
B6: humanized anti-5T4 antibody 833d with HC-41C mutation (antibody, human IgG1, kappa, V domains shown)
VH: QSLEESGGGLVQPGGSLRLSCAASGIDLSHYVVGWVRQACGKGLEWIGIIYGSGRTYYANWAKGRFTISRHNSKNTLYLQMNSLRAEDTAVYYCARDASVSVYYWGYFDLWGQGTLVTVSS
VL: B5 VL with A1D, Y2I, D3Q, V11L, K42Q, D70E, L73F, F83L, G103Q, V107L
B7: humanized anti-5T4 antibody 833c with HC-41C mutation (antibody, human IgG1, kappa, V domains shown)
VH: B5 VH with V5E, I12V, Q13K, K71R, V80L, R81Q, Q114R
VL: B5 VL with A1D, Y2I, D3Q, S10T, V11L, D70E, E81D, G103Q
B8: humanized anti-5T4 antibody 833b with HC-41C mutation (antibody, human IgG1, kappa, V domains shown)
VH: B5 VH with I12V, K71R, Y79F, V80L, A87V, Y94F
VL: B5 VL
B9: humanized anti-5T4 antibody 825b with HC-41C mutation (antibody, human IgG1, kappa, V domains shown)
VH: EVQLEESGGGLVKPGGSLRLSCAASGIDLSSYGMGWVRQACGKGLEWVSIISRNSVTYYATWAKGRFTISRDNSKNTLYLQMNSLRAEDTAVYYCARRATYSGALGYFDIWGRGTLVTVSS
VL: EIVMTQSPSSLSASVGDRVTITCQASENIYSTLAWYQQKPGKAPKLLIYDAFDLASGVPSRFSGSGSGTDYTLTISSLQPEDFATYYCQQGYSGTNVDNAFGQGTKLEIKR
B10: prior art anti-5T4 antibody H8 (H8 humanized variant 1) (antibody, human IgG1, kappa, V domains shown)
VH: QVQLVQSGAEVKKPGASVKVSCKASGYSFTGYYMHWVKQSPGQGLEWIGRINPNNGVTLYNQKFKDRVTMTRDTSISTAYMELSRLRSDDTAVYYCARSTMITNYVMDYWGQGTLVTVSS
VL: DIVMTQSPDSLAVSLGERATINCKASQSVSNDVAWYQQKPGQSPKLLISYTSSRYAGVPDRFSGSGSGTDFTLTISSLQAEDVAVYFCQQDYNSPPTFGGGTKLEIKR
B11: chimeric anti-5T4 antibody 899 with HC-41C mutation (antibody, human IgG1, V domains shown)
VH: QSVEESGGRLVTPGTPLTLTCTVSGFSLSSYTMSWVRQACGKGLEYIGIISSSDGTWYANWVKGRFTISKTSTTVDLKMTSLTTEDTATYFCARDGTGNKYYTWDRLDLWGQGTLVTVSS
VL: NIVMTQTPSPVSGAVGGTVTINCQASQSIYNELSWYQQKPGQPPKLLIYYASTLASGVSSRFKGSGSGTQFTLTISGVESVDAATYYCQQGYSSSNVDNVFGGGTEVVVK
notes: Human IgG1 constant parts; also called chimeric 899; 899 chimeric
B12: chimeric anti-5T4 monoclonal antibody 811 (antibody, human IgG1, V domains shown)
VH: QSVEESGGRLVTPGTSLTLTCTASGFSLSTYAMIWVRQAPGKGLEWIGIINSSGYTYYANWAKGRFTISKTSTTVDLKITSPTTEDTATYFCARGNAGISYDVSFNLWGQGTLVTVSS
VL: AYDMTQTPASVEAGVGGTVTINCQASESISSWLAWYQQKPGQPPNLLIYEASKLASGVPSRFSGSGSGTEFTLTISGVESADAATYYCQQGWTSSNIDNAFGGGTEVVVK
B13: chimeric anti-5T4 monoclonal antibody 828 (antibody, human IgG1, V domains shown)
VH: QSVEESGGRLVTPGTPLTLTCTVSEIDLSTYAMSWVRQAPGKGLEWIGIISAGGSAYYASWAKGRFTISRTSTTVDLKMTSLTTEDTATYFCARGAAYAGYTYGFSFFDIWGPGTLVTVSL
VL: DIVMTQTPSSVSAAVGGTVTINCQASQNIYSNLAWYQQKPGQRPKLLIYGASNLESGVPSRFKGSGSGTEYTLTISDLESDDAATYYCQSIDYGNNYLGSFGGGTEVVVK
B14: chimeric anti-5T4 monoclonal antibody 847 (antibody, human IgG1, V domains shown)
VH: QSVEESGGRLVTPGTPLTLTCTVSGFSLSSYDMSWVRQAPGKGLEYIGYINSDGSAYYASWAKGRFTISKTSSTTVDLKITSPTTEDTATYFCARDAGSTYLYGMDPWGPGTLVTVSS
VL: DVVMTQTPASVSEPVGGTVTINCQASQSIYSYLAWYQQKPGQRPKLLIYAASTLASGVSSRFKGSGSGTQFTLTISDLESADAATYYCQCTYYGGTFNTFGGGTEVVVK
B15: chimeric anti-5T4 monoclonal antibody 908 (antibody, human IgG1, V domains shown)
VH: QSVEESGGRLVTPGTPLTLTCTVSGFSLSNFAMSWVRQAPGKGLEWIGIINGYGSIYYATWAKGRFTISKTSTTVDLKITSPTTEDTATYFCARGDAGRTYNHYFNIWGPGTLVTVSL
VL: DVVMTQTPASVEAAVGGTVTIKCQASQSISSWLSWYQQKPGQRPKLLIYAASNLASGVPSRFKGSGSGTQFTLTISDLESDDAATYYCQQGYTSYNVDNAFGGGTEVVVK

Molecular target: T1, cynomolgus monkey 5T4 antigen
Assay: flow cytometry, CHOZN cells expressing cyno 5T4

Point of comparison: B1, EC50 0.33 µg/mL. Against it:
- B2 — within 1.5-fold, 0.24 µg/mL
- B3 — 2.2-fold lower, 0.15 µg/mL
- B4 — 1.6-fold lower, 0.21 µg/mL
- B5 — 2.8-fold lower, 0.12 µg/mL
- B6 — 2.1-fold lower, 0.16 µg/mL
- B7 — 1.9-fold lower, 0.17 µg/mL
- B8 — 1.8-fold lower, 0.18 µg/mL
- B9 — within 1.5-fold, 0.46 µg/mL
- B10 — 6-fold higher, 1.99 µg/mL
- B11 — 1.8-fold lower, 0.18 µg/mL

Molecular target: T2, human 5T4 oncofoetal antigen
Assay: flow cytometry, PA-1 cells
Protocol: (§1) 17 antibodies were selected and affinity to 5T4 antigen was measured using MDA-MB-468 cells, PA-1 cells and Chinese Hamster Ovary (CHO) mammalian cells expressing human or cyno 5T4 antigen (Table 2). In the current application the utilized CHO cells are referred to as CHOZN as these CHO cells expressing human or cyno 5T4 antigen were obtained using the CHOZN® Platform of Sigma-Aldrich. CHOZN cells (SAFC) were transiently transfected, using an Amaxa nucleofector device (Lonza) according to the manufacturer's instructions. Standard, commercially available mammalian expression vectors (SAFC, Life Technologies) were used, which contained the full length human and cyno 5T4 antigen coding sequence (according to accession number NP 006661.1 and Q4R8Y9 respectively), preceded by a human CMV promoter. Transiently transfected CHOZN cells were cultured according the manufacturer's instructions, before being used in antibody binding studies. The 17 selected antibodies are characterised by the amino acid sequences according to the following table (Table 1).
(§2) MDA-MB-468 cells, PA-1 cells or CHOZN cells expressing human or cyno 5T4 antigen (100,000 cells/well in a 96-well plate) were washed three times with ice-cold FACS buffer (1×PBS (Lonza) containing 0.2% v/w BSA (Sigma-Aldrich, St. Louis, Mo.)) and 0.02% v/w NaN3 (Sigma-Aldrich), followed by the addition of a concentration range of each primary mAb (50 μl/well) diluted in ice-cold FACS buffer. After an incubation of 30 minutes at 4° C., cells were washed three times with ice-cold FACS buffer and 50 μl/well secondary mAb (AffiniPure F(ab′)2 fragment Goat-anti-human IgG-APC, 1:6,000 dilution, Jackson Immuno Research) was added. After 30 minutes at 4° C., cells were washed twice and resuspended in 150 μl FACS buffer. Fluorescence intensities were determined by flow cytometry (BD FACSVerse, Fanklin Lakes, N.J.) and indicated as the median fluorescence intensity (MFI). Curves were fitted by nonlinear regression using the sigmoidal dose-response equation with variable slope (four parameters) in GraphPad Prism (version 5.01/6.01 for Windows, GraphPad, San Diego, Calif.). EC₅₀ values were calculated as the concentration in μg/ml that gives a response half way between bottom and top of the curve, when using a 4 parameter logistic fit.

Point of comparison: B14, EC50 0.22 µg/mL. Against it:
- B12 — 1.8-fold higher, 0.4 µg/mL
- B13 — 2.2-fold lower, 0.1 µg/mL
- B15 — 5.5-fold lower, 0.04 µg/mL

Molecular target: T2, human 5T4 oncofoetal antigen
Assay: flow cytometry, CHOZN cells expressing hu 5T4

Point of comparison: B9, EC50 0.16 µg/mL. Against it:
- B1 — within 1.5-fold, 0.2 µg/mL
- B2 — within 1.5-fold, 0.15 µg/mL
- B3 — within 1.5-fold, 0.12 µg/mL
- B4 — within 1.5-fold, 0.2 µg/mL
- B5 — within 1.5-fold, 0.22 µg/mL
- B6 — within 1.5-fold, 0.18 µg/mL
- B7 — within 1.5-fold, 0.18 µg/mL
- B8 — within 1.5-fold, 0.15 µg/mL
- B11 — within 1.5-fold, 0.14 µg/mL

Molecular target: T2, human 5T4 oncofoetal antigen
Assay: flow cytometry, MDA-MB-468 cells
Protocol: as §1, §2

Point of comparison: B13, EC50 0.1 µg/mL. Against it:
- B12 — 7.3-fold higher, 0.73 µg/mL
- B14 — 2-fold higher, 0.2 µg/mL
- B15 — 2.1-fold higher, 0.21 µg/mL

Molecular target: T1, cynomolgus monkey 5T4 antigen
Assay: flow cytometry, CHOZN cells expressing cyno 5T4
Remark: another data set of the same source
Protocol: as §2

Point of comparison: B15, “fold improvement of binding compared to H8 on cyno 5T4” value 32 fold. Against it:
- B12 — the same, 32 fold
- B13 — lower, 7 fold
- B14 — the same, 32 fold

Molecular target: T2, human 5T4 oncofoetal antigen
Assay: flow cytometry, CHOZN cells expressing hu 5T4
Remark: another data set of the same source
Protocol: as §1, §2

Point of comparison: B14, EC50 0.22 µg/mL. Against it:
- B12 — 1.5-fold higher, 0.34 µg/mL
- B13 — within 1.5-fold, 0.19 µg/mL
- B15 — within 1.5-fold, 0.23 µg/mL

Molecular target: T1, cynomolgus monkey 5T4 antigen
Assay: flow cytometry, CHOZN cells expressing cyno 5T4
Remark: another data set of the same source
Protocol: as §1, §2

Point of comparison: B12, EC50 0.25 µg/mL. Against it:
- B13 — 3.3-fold higher, 0.82 µg/mL
- B14 — within 1.5-fold, 0.2 µg/mL
- B15 — within 1.5-fold, 0.24 µg/mL
- B10 — 32-fold higher, 8.11 µg/mL
